Measurements as given in patent EP0323740A2, “Linear analogs of atrial natriuretic peptides” (CALIFORNIA BIOTECHNOLOGY, INC., priority 1987, dated 1989).

Target: T1, ANP-receptor (Bos taurus, UniProt P10730)
T1 construct: endogenous in cells; host or cells: cultured BASM cells
T1 sequence (P10730 42-537): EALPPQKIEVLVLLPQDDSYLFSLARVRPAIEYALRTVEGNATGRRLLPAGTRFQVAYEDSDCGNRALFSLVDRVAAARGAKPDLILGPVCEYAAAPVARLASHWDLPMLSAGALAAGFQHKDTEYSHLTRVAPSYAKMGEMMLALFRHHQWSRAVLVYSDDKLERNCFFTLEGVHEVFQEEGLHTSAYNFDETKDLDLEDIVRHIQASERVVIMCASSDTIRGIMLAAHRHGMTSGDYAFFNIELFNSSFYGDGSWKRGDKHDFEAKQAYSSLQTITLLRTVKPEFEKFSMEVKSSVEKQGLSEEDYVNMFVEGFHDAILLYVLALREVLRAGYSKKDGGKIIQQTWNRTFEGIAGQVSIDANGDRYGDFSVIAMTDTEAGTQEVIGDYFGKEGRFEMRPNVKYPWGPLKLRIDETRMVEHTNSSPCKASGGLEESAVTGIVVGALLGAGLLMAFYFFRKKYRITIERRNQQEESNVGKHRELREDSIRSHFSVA
Assay: competitive displacement receptor binding assay with (¹²⁵I)-rANP(126-150) on cultured cells
Design: species or system bovine
Conditions: concentration of unlabeled peptide displacing 50% of maximal binding of 0.5 nM (¹²⁵I)-rANP(126-150); BASM cells; read-out: Ki(app)
Text: Analogous "competitive displacement" receptor binding assays are considered commonplace in the art for examining specific ligand-receptor interactions.
Assuming these ANP analogs act at one or more ANP receptor sites, then increased receptor affinity should reflect increased biological potency.

| Compound | Ki [nM] |
| --- | --- |
| parathyroid hormone | > 500 |
| CC[C@H](C)[C@H](NC(=O)[C@H](Cc1ccc(O)cc1)NC(=O)[C@@H](NC(=O)[C@H](CCCNC(=N)N)NC(=O)[C@@H](N)CC(=O)O)C(C)C)C(=O)N[C@@H](Cc1cnc[nH]1)C(=O)N1CCC[C@H]1C(=O)N[C@@H](Cc1ccccc1)C(=O)O [angiotensin II] | > 500 |
